This data set addresses T1, Pol2CORE P301R (DNA polymerase epsilon catalytic core) (Saccharomyces cerevisiae, UniProt P21951 1-1187, P301R).
T1 sequence: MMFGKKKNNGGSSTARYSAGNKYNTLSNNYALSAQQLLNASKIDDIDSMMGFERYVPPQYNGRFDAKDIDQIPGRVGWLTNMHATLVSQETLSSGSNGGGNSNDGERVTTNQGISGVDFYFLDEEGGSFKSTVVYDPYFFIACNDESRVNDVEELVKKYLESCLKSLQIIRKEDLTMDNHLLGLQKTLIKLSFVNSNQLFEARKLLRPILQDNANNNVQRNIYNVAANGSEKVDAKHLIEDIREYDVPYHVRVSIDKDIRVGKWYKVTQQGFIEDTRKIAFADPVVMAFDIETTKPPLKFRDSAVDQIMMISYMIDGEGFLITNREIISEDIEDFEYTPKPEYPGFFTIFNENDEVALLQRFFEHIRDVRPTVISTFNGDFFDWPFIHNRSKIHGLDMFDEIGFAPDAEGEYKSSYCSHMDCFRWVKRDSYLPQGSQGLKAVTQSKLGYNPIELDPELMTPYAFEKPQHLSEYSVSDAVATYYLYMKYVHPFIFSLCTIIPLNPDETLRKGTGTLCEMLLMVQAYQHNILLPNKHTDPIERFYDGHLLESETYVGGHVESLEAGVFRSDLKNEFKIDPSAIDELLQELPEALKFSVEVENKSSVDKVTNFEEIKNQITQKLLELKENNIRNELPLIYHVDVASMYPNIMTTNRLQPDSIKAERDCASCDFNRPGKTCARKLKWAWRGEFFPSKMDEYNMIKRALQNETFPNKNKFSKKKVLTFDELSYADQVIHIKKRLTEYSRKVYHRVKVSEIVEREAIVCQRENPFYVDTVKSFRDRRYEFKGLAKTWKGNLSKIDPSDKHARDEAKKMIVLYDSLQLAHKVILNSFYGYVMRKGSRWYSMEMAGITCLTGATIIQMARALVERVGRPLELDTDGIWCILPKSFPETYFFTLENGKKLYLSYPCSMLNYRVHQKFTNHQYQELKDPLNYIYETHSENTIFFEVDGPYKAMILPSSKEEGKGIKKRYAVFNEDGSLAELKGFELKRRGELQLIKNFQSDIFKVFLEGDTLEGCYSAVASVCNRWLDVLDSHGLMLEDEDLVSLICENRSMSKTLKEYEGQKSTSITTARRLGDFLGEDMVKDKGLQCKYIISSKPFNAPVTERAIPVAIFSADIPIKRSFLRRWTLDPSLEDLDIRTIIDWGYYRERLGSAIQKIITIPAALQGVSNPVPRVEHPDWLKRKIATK
The data set can be described thus: X-ray crystallography; incoming dNTP; Ca2+ in exonuclease A-site; Crystallization conditions not in the material; protein stored in 25 mM Tris-Ac pH 7.5, 10% glycerol, 800 mM NaAc. The following applies: protein: recombinant; tags: 6xHis removed with PreScission protease; 5' overhang 5 nt on template (recessed primer 3' end).

B1: KP11ddC/KT16 primer-template (dsDNA)
DNA 1: TAACCGCGTTC
DNA 2: CTCTTGAACGCGGTTA
modifications: 3'-terminal dideoxy-C on primer
Turning to B1, the binding result is given as “binds”.
